Patent US20070129319

What was measured:
[1] = test system: ubiquitin-Met-beta-galactosidase fusion protein
[2] = molecular target: ubiquitin-Met-beta-galactosidase fusion protein; remark: listed apart in the source

GST-DUB-3 fusion protein (pGEX-DUB-3)
cleavage of ubiquitin from the ubiquitin-Met-beta-galactosidase fusion protein (immunoblot with anti-beta-galactosidase) [1]: DUB-3 displayed deubiquitinating activity at least equivalent to that of DUB-1

GST-DUB-3C89S fusion protein (pGEX-DUB-3C89S)
cleavage of ubiquitin from the ubiquitin-Met-beta-galactosidase fusion protein (immunoblot with anti-beta-galactosidase) [1]: this activity was ablated by mutating the cysteine residue (C89S) conserved within the active site

B1: GST-DUB-1 fusion protein (pGEX-DUB-1) (protein)
chain: MVVALSFPEADPALSSPDAPELHQDEAQVVEELTVNGKHSLSWESPQGPGCGLQNTGNSCYLNAALQCLTHTPPLADYMLSQEHSQTCCSPEGCKLCAMEALVTQSLLHSHSGDVMKPSHILTSAFHKHQQEDAHEFLMFTLETMHESCLQVHRQSKPTSEDSSPIHDIFGGWWRSQIKCLLCQGTSDTYDRFLDIPLDISSAQSVKQALWDTEKSEELCGDNAYYCGKCRQKMPASKTLHVHIAPKVLMVVLNRFSAFTGNKLDRKVSYPEFLDLKPYLSEPTGGPLPYALYAVLVHDGATSHSGHYFCCVKAGHGKWYKMDDTKVTRCDVTSVLNENAYVLFYVQQANLKQVSIDMPEGRINEVLDPEYQLKKSRRKKHKKKSPFTEDLGEPCENRDKRAIKETSLGKGKVLQEVNHKKAGQKHGNTKLMPQKQNHQKAGQNLRNTEVELDLPADAIVIHQPRSTANWGRDSPDKENQPLHNADRLLTSQGPVNTWQLCRQEGRRRSKKGQNKNKQGQRLLLVC
cleavage of the Ub-Met-beta-gal fusion [2]: Deubiquitinating activity was demonstrated for both DUB-1 and DUB-3 fusion proteins by the cleavage of the Ub-Met-β-gal fusion

B2: GST-DUB-1C60S fusion protein (pGEX-DUB-1 (C60)) (protein)
chain: MVVALSFPEADPALSSPDAPELHQDEAQVVEELTVNGKHSLSWESPQGPGCGLQNTGNSSYLNAALQCLTHTPPLADYMLSQEHSQTCCSPEGCKLCAMEALVTQSLLHSHSGDVMKPSHILTSAFHKHQQEDAHEFLMFTLETMHESCLQVHRQSKPTSEDSSPIHDIFGGWWRSQIKCLLCQGTSDTYDRFLDIPLDISSAQSVKQALWDTEKSEELCGDNAYYCGKCRQKMPASKTLHVHIAPKVLMVVLNRFSAFTGNKLDRKVSYPEFLDLKPYLSEPTGGPLPYALYAVLVHDGATSHSGHYFCCVKAGHGKWYKMDDTKVTRCDVTSVLNENAYVLFYVQQANLKQVSIDMPEGRINEVLDPEYQLKKSRRKKHKKKSPFTEDLGEPCENRDKRAIKETSLGKGKVLQEVNHKKAGQKHGNTKLMPQKQNHQKAGQNLRNTEVELDLPADAIVIHQPRSTANWGRDSPDKENQPLHNADRLLTSQGPVNTWQLCRQEGRRRSKKGQNKNKQGQRLLLVC
cleavage of the Ub-Met-beta-gal fusion [2]: DUB-1C60S (lane 3) and DUB-3C89S (lane 5) are catalytically inactive
